Laboratory results as given in the DeepSol protein solubility set.

Assay: soluble on expression in E. coli; label from the status in PepcDB or PDB records

Sequence | soluble on expression in E. coli
MGSDKIHHHHHHMIKALYTSITGMNATQNALSVTSNNIANAQTVGYKKQKAMFDDLLYNNSIGAKGDDRYAGTNPKSIGNGVKMSGTVTDYTDGTITLTGGKTQAAMEGNGFFVVGDSKAGNMEFTRKGTFTISSDYYITNTEGQYVFAYPADPSTGNVDLSGIPGPLQVPMGSAIGGIRTSKGVVGGNIPADAKQITQELPVYDNAGNTWTMRVEFKQDGEHNYKYKVYMRNESKKETAFNEVNGAGGEVKFDAVGKPDPVNPEANIPFNGGTVKIDFSKLTNHPTEKTLAVTDVDGRAAATVKDCFIADGGYVMVKYSDGSMKAAGQLAVAMFPNEGGLMKTGNGNYTATNTTGILAMGVSGQNGAGKVRGSAQEGANVDLSVEFVDLMLYQRGFQGNAKVIKISDEVLNEVVNLIR | not soluble
TSPLYTGAVPRANRIVQQLVEAGADLANIRTMFRNMLRGEEMILSRAEQNVFLQHFPDMLPCGIDRNSELAIALREALRRADSQQAARAPARTPPRSSVRTPERSPAPRTATESSSGSNQRSLLGRFAGLMTSNQRRPSSASNASTSQRPVDRNPPRINLMPTGANRVAMRNRGNNEADAALQALAQNGINMEDLRAALEAYIVWLRPIPLDIANALEGVGITPRFDNPEEAKVDNPLMNLSSALKRRLDA | not soluble
MSLRITRLTVFHLDLPLAKPYWLSGGRLKFDRLDSTYLRIDTDEGVTGWGEGCPWGHSYLPAHGPGLRAGIATLAPHLLGLDPRSLDHVNRVMDLQLPGHSYVKSPIDMACWDILGQVAGLPLWQLLGGEAATPVPINSSISTGTPDQMLGLIAEAAAQGYRTHSAKIGGSDPAQDIARIEAISAGLPDGHRVTFDVNRAWTPAIAVEVLNSVRARDWIEQPCQTLDQCAHVARRVANPIMLDECLHEFSDHLAAWSRGACEGVKIKPNRVGGLTRARQIRDFGVSVGWQMHIEDVGGTALADTAALHLAASTPEANRLASWLGHAHLADDPIPGQGARNRDGLATPPSAPGLGVIPDPEALGRPVASYDEGHHHHHH | soluble
MKIISKEFTVKTRSRFDSIDITEQVSEAIKGINNGIAHVIVKHTTCAIIINEAESGLMKDFLNWAKKLVPPDGEFEHNIIDNNGHAHVISAIIGNSRVVPIIEGKLDLGTWQRIILLEFDGPRTRTVLVKSMGE | soluble
MGSDKIHHHHHHMSNHSSSIPELSDNGIRYYQTYNESLSLWPVRCKSFYISTRFGQTHVIASGPEDAPPLVLLHGALFSSTMWYPNIADWSSKYRTYAVDIIGDKNKSIPENVSGTRTDYANWLLDVFDNLGIEKSHMIGLSLGGLHTMNFLLRMPERVKSAAILSPAETFLPFHHDFYKYALGLTASNGVETFLNWMMNDQNVLHPIFVKQFKAGVMWQDGSRNPNPNADGFPYVFTDEELRSARVPILLLLGEHEVIYDPHSALHRASSFVPDIEAEVIKNAGHVLSMEQPTYVNERVMRFFNA | soluble
SRRLLNDSTGRIYQRVGKEGEKLKEEPQDLDLVWPPRLNSSAEAPQSLHPSSRGVWNELPPQSGQFSGQYGTRSRTFQSQPHPTTSSNGMVVNKHSEGSHGGELPVVNSSAGSNCCTCNCQSTLQAILQELKTMRKLMQIQAVGTQNRQQPPISLICSQRTAVSRKRNKKKKVPPKTVEPLTVKQKPSGSEMEKKSVVASELSALQAAEHTSPEESRVLGFGIVLESPSSDPEVQLAEGFDVFMPKSQLDSILSNYTRSGSLLFRKLVCAFFDDKTLANSLPNGKRKRGLNDNRKGLDQNIVGAIKVFTEKYCTANHVDKLPGPRDWVQILQDQIKLARRRLKRGSEIADSDERLDGIALPPTVV | not soluble
GPGSMQRLFFRSTCARVRCADLRLKPPVSIPQVTFQTVAFSSSAAGAAVRSGAEGTNTTTKRRSGFGGGAGGGGPVKDRYPPPATDLGDPRRRLAVLVDASSVDPRVFRNTILPAALKVGTPVLIRIFSVQLSSEWEPLVAGSGGTRESATSTEPEWKTSGTANDGREEVSGAAGSRDSGAWCPPVEFFRVERFIPVPMQMEADANHIFDFRKQNQIEAVAFVCGEVDRGVFEGFLPNIAGNGFNQYVLDELGMAKEVLEDGRSEDGTPTVQK | soluble
MSLAEPIESGKQYVELTSAVPVAVPGKIEVIELFWYGCPHCYAFEPTINPWVEKLPSDVNFVRIPAMFGGPWDAHGQLFITLDTMGVEHKVHAAVFEAIQKGGKRLTDKNDMADFVATQGVNKDDFLKTFDSFAVKGKIAQYKELAKKYEVTGVPTMIVNGKYRFDLGSAGGPEKTLQVADQLIDKERAAAKAEGHHHHHH | soluble
MIVLALDVYEGERAIKIAKSVKDYISMIKVNWPLILGSGVDIIRRLKEETGVEIIADLKLADIPNTNRLIARKVFGAGADYVIVHTFVGRDSVMAVKELGEIIMVVEMSHPGALEFINPLTDRFIEVANEIEPFGVIAPGTRPERIGYIRDRLKEGIKILAPGIGAQGGKAKDAVKAGADYIIVGRAIYNAPNPREAAKAIYDEIRGV | soluble
MGGLDKMSVEKKLLLDVKDLKVHFNITPKSAWPWTKPVTLKAVDGVNVRLYEGETLGVVGESGCGKSTFARAIIGLVQATHGEVVWLGQDLTRMQEVKRRATRKQIQMIFQDPLASLNPRMTVGDIIAEPLQTFYPELSKQEVKDRVKEMMAKVGLLPNVINRYPHEFSGGQCQRIGIARALILKPKMIICDEPVSALDVSIQAQVVNLLKELQKELGLSLVFIAHDLSVVKHISDRVLVMYLGNAVELGVSKELFANPKHPYTKALMSAVPIPDPNIERNKTIQMLEGDLPSPMNPPSGCVFRTRCPQATAECAKTKPVIKGSDIHSVSCLYAEA | not soluble
MSLKVLIKTDLVLGAPKTLRDVYIGIDEGQIKVISKEKPEDYDYAEYVIGGKNRVVAPGFVTTHSFLYLYPFRYRVFSGKANAFQLMSTLTPNDIYYFSLMGAYHLLKTGVTTVVTSGPNLDMIARAISEVGLRPVLAVGVDCPDSKEDWEREFTTLYNRWSSKNENRVILRLCSNEYSKEVFELSQQYDFPVLLERFVSLENISGNPINVIGLGGGARKDLDIIKQKGFHLASTPSYEVSQFPLSQYKPSISLDLSPTFDIRHEVSTSITRLILTPEEALNAMTIWGLLQLKYNDRGVLENGKVADLVIFEVKEPPTFPLDYESPYESIVFNLSTPETVLVSGEAILDGGVPLNIGIKHIEKAIERLEDIDKKVTEGHHHHHH | soluble
MGSDKIHHHHHHMRRLPPLNALQIFATVARHRSFTRAADALCVTQGAISRQIQSLEAHYGFALFMRHARGLTLTVEGEQLLPVVVESFARIEDISLKLTRQRTDLALKVPTCVMRWVLPRIMRFQREHPDLHVQMTTTWRHDVDFQSEPFDAAIVYGMSPGPDVAAVPLFDERLTPVCAPDLLEGRPLARVEDLACHTLLHPTRDHRDWRRWLDYAGAAGVDPDRGPSFDSLDLATSAATQGFGVALGDLTLSEEDFAARRLAMPLDIVQRTGARYYFVYPESVAQQQKIQRFSAWLDANRD | not soluble
MSLKILMIMEEAEERRSLAEKFIENIKNVECFEASMGTEALFIMKKHTPDFVFLNSKLMDGTGFEYVNLLREVNCYAKFIFMGEDIEESITAFRFQAFYYLLRPFREEDLQFLLYRMGKEGHHHHHH | soluble
MNPSMKQKQEEIKENIKNSSVPRRTLKMIQPSASGSLVGRENELSAGLSKRKHRNDHLTSTTSSPGVIVPESSENKNLGGVTQESFDLMIKENPSSQYWKEVAEKRRKALYEALKENEKLHKEIEQKDNEIARLKKENKELAEVAEHVQYMAELIERLNGEPLDNFESLDNQEFDSEEETVEDSLVEDSEIGTCAEGTVSSSTDAKPCI | soluble
MKIGVVGLGLIGASLAGDLRRRGHYLIGVSRQQSTCEKAVERQLVDEAGQDLSLLQTAKIIFLCTPIQLILPTLEKLIPHLSPTAIVTDVASVKTAIAEPASQLWSGFIGGHPMAGTAAQGIDGAEENLFVNAPYVLTPTEYTDPEQLACLRSVLEPLGVKIYLCTPADHDQAVAWISHLPVMVSAALIQACAGEKDGDILKLAQNLASSGFRDTSRVGGGNPELGTMMATYNQRALLKSLQDYRQHLDQLITLISNQQWPELHRLLQQTNGDRDKYVE | soluble
MNFLSQRYTGKSLHPDETKCYKNFTQTAQKLTHRLAESINHYVNHIDCVINTNLYNRLLAEKKESNHMIYKERETWLEAILNTLPDHVFILDESGRYIESFGGTHHSKTFNAERYIGLQLSDVLSPTKADELMGFIFDVMQDNETKVVKYNLSLHDHLLLPIEELEALENPEEMWFEAIIKPVNAPENANKLVIWSVRDITKTHLLEQRLK | not soluble
DGVRIFNSLAATVYADSTAAHADMQGRRLKAVSDGLDHNGTGLRVIAQTQQDGGTWEQGGVEGKMRGSTQTVGIAAKTGENTTAAATLGMGRSTWSENSANAKTDSISLFAGIRHDAGDIGYLKGLFSYGRYKNSISRSTGADEHAEGSVNGTLMQLGALGGVNVPFAATGDLTVEGGLRYDLLKQDAFAEKGSALGWSGNSLTEGTLVGLAGLKLSQPLSDKAVLFATAGVERDLNGRDYTVTGGFTGATAATGKTGARNMPHTRLVAGLGADVEFGNGWNGLARYSYAGSKQYGNHSGRVGVGYRF | soluble
EDKIMSYNAFFWMWVHDMLIDSIKWRDEHGRCINKDKGKTCIKGCNKKCICFQKWVEQKKTEWGKIKDHFRKQKDIPKDWTHDDFLQTLLMKDLLLEIIQDTYGDANEIKRIEALLEQAGVGGIDFAALAGLYTKGFVAEKDTTIDKLLQHEQKEADKCLKTHTDDTCPPQEDRSVARS | soluble
MGHHHHHHSHMIMQEIFLCSISNVRSGDCKEDCAYCTQSSHHQGAIKRYKFKDEKVVLQEARALRQLGALGFCLVTSGRELDDEKCEYIAKLAKAINQEELGLHLIACCGRADLEQLEFLRDAGIHSYNHNLETSQNFFPKICSTHTWEERFITCENALRAGLGLCSGGIFGLNESWEDRIEMLRALASLSPHTTPINFFIKNPVLPIDAETLSADEALECVLLAKEFLPNARLMVAGGREVVFKDNDKKEAKLFEYGINAVVLGDYLTTKGKAPKKDIEKLLSYGLTMATSCH | soluble
MKIVWYGHACFLVKTKGVSILIDPYPDVDEDRMEKVDYILITHEHMDHYGKTPLIAKLNDAEVIGPKTVYLMAISDGLTKVREVEADQEFQLGDVTVKTFYTEHPTSQYPLGYLILGEKRVAHLGDTYYSPGFRELRGQVDILLVPIGGRSTASEREAVDIIDIIRPRIVVPMHYGTYGSTGNVESFKRELQRRRVWVLVKDLKPYEGFEV | soluble
MGSDKIHHHHHHMYVAVKGGEQAILNTHKLISETRRGDPEIAELTLPQISEQLGLAVDRVMAEGSVYDRQLAALALKQAQGDAMEAIFLLRAYRTTLPRIAVSEPIDTSRMAIRRRISATFKDLPGGQVLGPTYDYTHRLLDFALTAEGLERVRAVPAAEPLDQSVPRVVDLLDDEGVIQEENDDDQEEVFDLTRQPKSFPAGRDQRLQNLARADEGFLLGLAYSTTRGYGFNHPFVGELRLGEVTVEIVPEELGFPIVVAEVTVTECQMINSFRGSAEQPPQFTRGYGLTFGHNEGKAMSMSLVDRAMRARELGEDVRYPAQDEEFVLSHTDNVEANGLVTHYKLPHYVDFQAELQLVRQLRAEYEAARAAAQTREAAE | not soluble
MSLNVQGNLFRPLTLPNGLSLENRFVLSPMVTNSSTSEGFVTDDDIAYAVRRAKSAPLQITGAAYITEYGQLFEYGFSVSKDEDIPGLTKLAKAMKSKGAKAVLQLTHAGRFSSHTLARHGYVYGPSPMQLQSPYPHQVKELTHKDILRIIDEYVQATRRAIQAGFDGVEISSAQRLLIQTFFSTFSNQRKDEYGPQTLTNRCRLGLEVFKAVQKVIREEAESDFILGFRATPEETRGSQIGYSIEEFMEFLEKILAIAQVDYLAIASWGHDVFRNTIRSEGVYKGQLVNQVIFEHFGDRVPIMATGGINSASKVFEALQHAHMIGASTPLVVDPEFLQKIKAKCSDQINLRIKVSDLEGLAIPKEGHHHHHH | not soluble
